According to US20180230231A1 (Memorial Sloan Kettering, published 2018):
Positions count from the first letter of the chain named. Ends that are not written are not given here.

How the values were obtained:
[1] = target: phrGFP-ΔMUC16^c334 on SKOV3 cells (human); test: FACS dot plot, surface staining, goat anti-mouse IgG PE (FL2) against GFP (FL1); secondary antibody alone gives 0.69 in this quadrant (FIG. 7A)
[2] = target: phrGFP-ΔMUC16^c114 on SKOV3 cells (human); test: FACS dot plot, surface staining, goat anti-mouse IgG PE (FL2) against GFP (FL1); secondary antibody alone gives 0.55 in this quadrant (FIG. 7A)
[3] = target: phrGFP-ΔMUC16^c114 on SKOV3 cells (human); test: FACS dot plot, surface staining, goat anti-mouse IgG PE (FL2) against GFP (FL1); secondary antibody alone gives about 0.9 in this quadrant (FIG. 7A)
[4] = target: human MUC16 on OVCAR3 cells (human); test: FACS dot plot, surface staining, goat anti-mouse IgG PE (FL2) against GFP (FL1); secondary antibody alone gives 8.06 in this quadrant (FIG. 7A)
[5] = target: phrGFP-ΔMUC16^c334 on SKOV3 cells (human); test: FACS dot plot, surface staining, goat anti-mouse IgG PE (FL2) against GFP (FL1); secondary antibody alone gives 4.11 in this quadrant (FIG. 7A)
[6] = target: phrGFP-ΔMUC16^c114 on SKOV3 cells (human); test: FACS dot plot, surface staining, goat anti-mouse PE (FL2) against GFP (FL1); secondary antibody alone gives 0.55 in this quadrant
[7] = target: human MUC16 on OVCAR3 cells (human); test: FACS dot plot, surface staining, goat anti-mouse PE (FL2) against GFP (FL1); secondary antibody alone gives 8.06 in this quadrant
[8] = target: phrGFP-ΔMUC16^c334 on SKOV3 cells (human); test: FACS dot plot, surface staining, goat anti-mouse PE (FL2) against GFP (FL1); secondary antibody alone gives 0.69 in this quadrant
[9] = target: phrGFP-ΔMUC16^c114 on SKOV3 cells (human); test: FACS dot plot, surface staining, goat anti-mouse PE (FL2) against GFP (FL1); secondary antibody alone gives about 0.9 in this quadrant
[10] = target: phrGFP-ΔMUC16^c334 on SKOV3 cells (human); test: FACS dot plot, surface staining, goat anti-mouse PE (FL2) against GFP (FL1); secondary antibody alone gives 4.11 in this quadrant
[11] = target: human MUC16 on OVCAR3 cells (human); test: FACS dot plot, surface staining, goat anti-mouse PE (FL2) against GFP (FL1); secondary antibody alone gives 8.06 in this quadrant (FIG. 7A)
[12] = target: phrGFP-ΔMUC16^c334 on SKOV3 cells (human); test: FACS dot plot, surface staining, goat anti-mouse PE (FL2) against GFP (FL1); secondary antibody alone gives 4.11 in this quadrant (FIG. 7A)
[13] = target: phrGFP-ΔMUC16^c114 on SKOV3 cells (human); test: FACS dot plot, surface staining, goat anti-mouse PE (FL2) against GFP (FL1); secondary antibody alone gives about 0.9 in this quadrant (FIG. 7A)
[14] = target: phrGFP-ΔMUC16^c334 on SKOV3 cells (human); test: FACS dot plot, surface staining, goat anti-mouse PE (FL2) against GFP (FL1); secondary antibody alone gives 0.69 in this quadrant (FIG. 7A)
[15] = target: phrGFP-ΔMUC16^c114 on SKOV3 cells (human); test: FACS dot plot, surface staining, goat anti-mouse PE (FL2) against GFP (FL1); secondary antibody alone gives 0.55 in this quadrant (FIG. 7A)
[16] = target: mouse MUC16 on ID8 and BR5-FVB1 cells (mouse); test: FACS on BR5-FVB1 (mouse) cells, second antibody alone
[17] = target: mouse MUC16 on ID8 and BR5-FVB1 cells (mouse); test: FACS on ID8 (mouse) cells, second antibody alone
[18] = target: T1, Mouse MUC16-CD Peptide 1 (mouse, also: N-terminal Cys added for KLH conjugation of immunogen); test: ELISA of clone supernatant on individual mouse MUC16 peptides
T1 construct: A cysteine was added at the N terminus for KLH conjugation of the immunogen
T1 peptide: TLDRKSVFVDGYSQNRDD

[19] = target: T2, MUC16 Polypeptide 2 (human, not fully specified); test: ELISA on synthetic peptide, hybridoma sup 1:1
T2 construct: Synthetic peptide
T2 peptide: CTLDRSSVLVDGYSPNRNE

Sequence of phrGFP-ΔMUC16^c114 on SKOV3 cells (human) (chain, as listed by the source mutant limits assumed): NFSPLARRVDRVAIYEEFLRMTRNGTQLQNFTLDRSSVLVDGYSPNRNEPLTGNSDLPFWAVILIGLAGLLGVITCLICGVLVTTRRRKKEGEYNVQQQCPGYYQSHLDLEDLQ
Sequence of mouse MUC16 on ID8 and BR5-FVB1 cells (mouse) (chain, as listed by the source limits assumed): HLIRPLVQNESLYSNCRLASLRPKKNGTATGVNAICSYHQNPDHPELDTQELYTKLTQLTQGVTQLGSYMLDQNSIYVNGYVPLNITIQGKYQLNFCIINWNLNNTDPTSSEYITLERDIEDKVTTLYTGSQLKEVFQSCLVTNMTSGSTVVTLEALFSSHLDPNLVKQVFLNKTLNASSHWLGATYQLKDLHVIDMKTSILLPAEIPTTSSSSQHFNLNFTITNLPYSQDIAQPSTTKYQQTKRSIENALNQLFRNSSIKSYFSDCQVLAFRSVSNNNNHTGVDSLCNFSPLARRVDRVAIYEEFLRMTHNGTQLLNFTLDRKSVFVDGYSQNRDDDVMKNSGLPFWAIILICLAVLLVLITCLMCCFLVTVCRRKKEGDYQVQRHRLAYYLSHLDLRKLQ

## VK8 (antibody)
[1]
  % of events in the upper left quadrant (PE-positive, GFP-negative): 0.91%
[2]
  % of events in the upper left quadrant (PE-positive, GFP-negative): 0.69%
[3]
  % of events in the upper right quadrant (PE-positive, GFP-positive): 1.02%
[4]
  % of events in the upper left quadrant (PE-positive, GFP-negative): 94.9%
[5]
  % of events in the upper right quadrant (PE-positive, GFP-positive): 6.59%

## OC125 (antibody)
[6]
  % of events in the upper left quadrant (PE-positive, GFP-negative): 2.39%
[7]
  % of events in the upper left quadrant (PE-positive, GFP-negative): 97%
[8]
  % of events in the upper left quadrant (PE-positive, GFP-negative): 1.1%
[9]
  % of events in the upper right quadrant (PE-positive, GFP-positive): 1.09%
[10]
  % of events in the upper right quadrant (PE-positive, GFP-positive): 25.4%

## M11 (antibody)
[11]
  % of events in the upper left quadrant (PE-positive, GFP-negative): 95.3%
[12]
  % of events in the upper right quadrant (PE-positive, GFP-positive): 33.5%
[13]
  % of events in the upper right quadrant (PE-positive, GFP-positive): 1.24%
[14]
  % of events in the upper left quadrant (PE-positive, GFP-negative): 1.35%
[15]
  % of events in the upper left quadrant (PE-positive, GFP-negative): 2.55%

## G anti Mouse IgG2b-PE (antibody)
[16]
  % of cells in the PE-positive gate: 0.99%
[17]
  % of cells in the PE-positive gate: 4.53%

B1: 12B10-3G10 (antibody, V domains shown)
VH: EVKLEESGGGLVQPKGSLKLSCAASGFTFNTYAVHWVRQAPGKGMEWVARIRSKSGNYATYYADSVKDRFTISRNDSQSMLYLQMNNLKTEDTAIYYCVRAGNNGAFPYWGQGTTVTVSS
VL: DIELTQSPSSLSASLGGRVTITCKASQDIKKYIAWYQHKPGKTPRLLIHFTSTLQTGIPSRFSGRGSGRDYSFSISNLESEDIATYYCLQYDSLYTFGGGTKLEIKR
notes: Mouse mAb against mouse MUC16, IgG 2b; also called mouse 12B10 mAb; 12B10-3F7
[18]
  binding result: binds

B2: 4H11.2.5 (antibody, V domains shown)
VH: VKLQESGGGFVKPGGSLKVSCAASGFTFSSYAMSWVRLSPEMRLEWVATISSAGGYIFYSDSVQGRFTISRDNAKNTLHLQMGSLRSGDTAMYYCARQGFGNYGDYYAMDYWGQGTTVTVSS
VL: DIELTQSPSSLAVSAGEKVTMSCKSSQSLLNSRTRKNQLAWYQQKPGQSPELLIYWASTRQSGVPDRFTGSGSGTDFTLTISSVQAEDLAVYYCQQSYNLLTFGPGTKLEVKR
notes: Mouse monoclonal, IgG2b (parent supernatant IgG2b, IgM); also called 4H11 MAb
[19]
  binding result: binds

B3: 4A5.37 (antibody, IgG1, V domains shown)
VH: B2 VH with Q4E, V19I, S29R, S30N
VL: B2 VL with P46T, V111I
notes: Mouse monoclonal, IgG1
[19]
  binding result: binds
